# According to patent US20220119492A1 (MEDIKINE, published 2022):
# Bridge positions count the residues as written; N and C are the ends. Ends that are not written are not given here.
# T1: human IL-2Rβ (CD122 protein, Fc Tag) (27-239) (human, UniProt P14784 27-239)
# T1 construct: range 27-239; Bought protein; also called hu-IL-2Rβ subunit; IL-2Rβ subunit; not shown: Fc tag of the bought protein
# T1 sequence (looked up): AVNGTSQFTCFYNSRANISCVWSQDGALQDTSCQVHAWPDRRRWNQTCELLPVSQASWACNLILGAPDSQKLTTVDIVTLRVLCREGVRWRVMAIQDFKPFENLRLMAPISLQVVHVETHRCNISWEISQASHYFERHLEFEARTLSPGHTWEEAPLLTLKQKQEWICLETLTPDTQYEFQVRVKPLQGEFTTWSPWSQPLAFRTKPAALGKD
# Target: T1, human IL-2Rβ (CD122 protein, Fc Tag) …
# Assay: phage ELISA competition
# How it was run: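 In this competitive binding ELISA, test ligands compete with a phage tracer for human IL-2Rβ-Fc, and IC50 is calculated from the absorbance signal over the ligand dilution series. A 50 μL volume of phage tracer was added without washing and left for 45 min at 4° C. TMB was used to detect bound phage for 1 to 15 min at 25° C, after which stop solution was added and absorbance was read at 450 nm.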
row,IC50 [µM],Binder
1,< 100,SNWHDCLFAQVGELCDLPGS (disulfide 6-15 (inferred)) [SEQ ID NO 2851]
2,< 100,ELLVDCFKVKVGELCDLFFG (disulfide 6-15 (inferred)) [SEQ ID NO 2858]
3,< 100,VTVQDCYFARVGDLCDLFSP [SEQ ID NO 2846]
4,< 100,SYLCWLDHWGVICEED [SEQ ID NO 2877]
5,< 100,WAFYDCRNAQVGDFCDLWEF [SEQ ID NO 2848]
6,< 100,NWLPDCLFANVGELCDIFPW [SEQ ID NO 2872]
7,< 100,HGILDCYFAKVGELCELFDW [SEQ ID NO 2868]
8,< 100,WYPCWGELCDLD [SEQ ID NO 2891]
9,< 100,SWLSDLQDCYIAQVGDLCQI [SEQ ID NO 2853]
10,< 100,HWFLDCFLANVGDLCDFFGN [SEQ ID NO 2871]
11,< 100,YDCYIAQVGELCDI [SEQ ID NO 2852]
12,< 100,KWVHDCFLAKVGDVCDLFVV [SEQ ID NO 2860]
13,< 100,RLASDWWDCYIAKVGELCDF [SEQ ID NO 2855]
14,< 100,QFVKDCFLAQVGDLCELFLW [SEQ ID NO 2869]
15,< 100,WYTCMMDWLGVHCELE [SEQ ID NO 2878]
16,< 100,WEWYDCLMAQVGELCDFEGN [SEQ ID NO 2847]
17,< 100,WTCWLTQLGYDCNLDVVDQSLG [SEQ ID NO 2881]
18,< 100,THVHDCFLAKVGDLCDLFIV [SEQ ID NO 2866]
19,< 100,WPCWLGELCDLD [SEQ ID NO 2890]
20,< 100,YSFKDCYFAKVGELCELFLW [SEQ ID NO 2875]
21,< 100,EIFKDCLFANVGELCEIFPS [SEQ ID NO 2873]
22,< 100,VHDCFIAQVGDLCDLF [SEQ ID NO 2887]

row,IC50 [µM],Binder
1,< 100,QMVWWDCWSTQEGPVCELNWTA [SEQ ID NO 2879]
2,< 100,HWVRDCFLAKVGELCDLFLW [SEQ ID NO 2867]
3,< 100,VSRYDCYIAKVGELCDFFEF [SEQ ID NO 2845]
4,< 100,RSLVDCFLVKVGDLCDFFNW [SEQ ID NO 2861]
5,< 100,WPCWALGELCDLD [SEQ ID NO 2889]
6,< 100,WPCWAALGELCDLD [SEQ ID NO 2888]
7,< 100,RYVHDCFIAQVGDLCDLFLH [SEQ ID NO 2859]
8,< 100,LVDCFKVKVGELCDLF (disulfide 4-13 (inferred)) [SEQ ID NO 2886]
9,< 100,WGKLVRDCFLAKVGDLCDLFLW [SEQ ID NO 2865]
10,< 100,DGSWYTCWFTQLGEWCEQDDAK [SEQ ID NO 2882]
11,< 100,AHFYDCFWAKAGELCDLWPS (disulfide 6-15 (inferred)) [SEQ ID NO 2863]
12,< 100,GGYYDCLIAEVGELCDIYGR [SEQ ID NO 2850]
13,< 100,DWLPDCYFANVGDLCSLFGS [SEQ ID NO 2870]
14,< 100,YWCSVWQLGSVCEMNNEETQ [SEQ ID NO 2880]
15,< 100,NWFHDCFLARVGDLCDLFLD (disulfide 6-15 (inferred)) [SEQ ID NO 2874]
16,< 100,RLLRDCFLAKVGDLCELFVW [SEQ ID NO 2856]
17,< 100,QWFHNCFLARVGDTCDLFLW [SEQ ID NO 2857]
18,< 100,SMDQDCYFAQVGELCVLFNQ [SEQ ID NO 2849]
19,< 100,RYLYDCFLALVGDLCVKFHQ [SEQ ID NO 2862]
20,< 100,EFFHDCYVARVGELCDLFGW [SEQ ID NO 2876]
21,< 100,EFWGWQCWQEPLGWSCDLEWMD [SEQ ID NO 2883]

# Target: T1, human IL-2Rβ (CD122 protein, Fc Tag) …
# Assay: competition ELISA, peptide tracer
# Protocol: (§1) Binding of Fc fusions to IL-2Rβ and IL-2Rγc were measured using a competition binding ELISA with biotinylated peptide/NeutrAvidin-HRP tracer. ELISA plate was prepared as described in Example 27.
# (§2) The plate was washed 4 times with PT (1×PBS, 0.05% Tween® 20) buffer. Fifty (50) μL of IL-2R ligands serially diluted in PBT was added to appropriate wells then incubated at 4° C. for 1 hr.
# (§3) At the appropriate time, the precomplexed bn-peptide/NA-HRP tracer was diluted to 2-fold its predetermined binding EC80 (typically 30 to 10 nM) without washing. fifty (50) μL of bn-peptide/NA-HRP tracer was added to each well and incubated at 4° C. for 45 mins.
IC50 [µM],binding result,Binder
< 100,–,GGELLVDCFKVKVGELCDLFF [SEQ ID NO 3107]
< 100,–,GGRYVHDCFIAQVGDLCDLFLHGG [SEQ ID NO 3147]
< 100,–,GGRYVHDCFIGQVGDLCDLFLHGG [SEQ ID NO 3171]
< 100,–,GGRYVHDCFAAQVGDLCDLFLHGG [SEQ ID NO 3170]
< 100,–,GGRYVHDCFIAAVGDLCDLFLHGG [SEQ ID NO 3172]
< 100,–,GGELLVDCFKVKVGELCDLF [SEQ ID NO 3122]
< 100,–,LLVDCFKVKVGELCDLFFGGG [SEQ ID NO 3125]
< 100,–,ELLVDCFKVKVGELCDLFFGGG [SEQ ID NO 3124]
< 100,–,LVDCFKVKVGELCDLFFGGG [SEQ ID NO 3126]
< 100,–,GGELLVDCFRVRVGELCDLFFGGG [SEQ ID NO 3128]
–,binds,GGWYPCWMAQLGELCDLDGGGGSGGVVCQDWEGVELCWQGG [IL-2Rβγc ligand having SEQ ID NO: 1263]
< 100,–,GGRYVHDCFIAQVGDLCDLFLH [SEQ ID NO 3137]
< 100,–,GGELLVDCFKVKVGELCDLFFG [SEQ ID NO 3114]
< 100,–,VDCFKVKVGELCDLFFGGG [SEQ ID NO 3127]

# Target: T2, cynomolgus monkey IL-2Rβ subunit (cynomolgus monkey)
# T2 construct: Bought protein; also called cyno-IL-2Rβ subunit
# T2 sequence (Q38J85 whole entry): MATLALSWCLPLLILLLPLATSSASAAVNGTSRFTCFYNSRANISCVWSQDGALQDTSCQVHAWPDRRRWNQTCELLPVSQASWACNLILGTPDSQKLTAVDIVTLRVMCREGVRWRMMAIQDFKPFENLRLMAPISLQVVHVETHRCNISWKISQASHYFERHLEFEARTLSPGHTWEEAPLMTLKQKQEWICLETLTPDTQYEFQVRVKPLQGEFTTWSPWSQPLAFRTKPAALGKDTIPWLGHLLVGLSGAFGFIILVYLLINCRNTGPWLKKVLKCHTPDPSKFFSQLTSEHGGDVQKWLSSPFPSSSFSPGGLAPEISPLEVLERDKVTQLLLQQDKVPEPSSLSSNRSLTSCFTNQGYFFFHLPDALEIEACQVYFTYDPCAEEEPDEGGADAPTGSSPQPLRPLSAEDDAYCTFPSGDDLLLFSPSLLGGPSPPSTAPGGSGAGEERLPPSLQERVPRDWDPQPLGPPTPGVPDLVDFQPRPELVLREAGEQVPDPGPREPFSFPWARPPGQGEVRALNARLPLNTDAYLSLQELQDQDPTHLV
# Assay: competition ELISA, peptide tracer
# Protocol: as §1, §2, §3
row,IC50 [µM],Binder
1,< 100,GGELLVDCFKVKVGELCDLFF [SEQ ID NO 3107]
2,< 100,GGRYVHDCFIAQVGDLCDLFLHGG [SEQ ID NO 3147]
3,< 100,GGRYVHDCFIGQVGDLCDLFLHGG [SEQ ID NO 3171]
4,< 100,GGRYVHDCFAAQVGDLCDLFLHGG [SEQ ID NO 3170]
5,< 100,GGRYVHDCFIAAVGDLCDLFLHGG [SEQ ID NO 3172]
6,< 100,GGELLVDCFKVKVGELCDLF [SEQ ID NO 3122]
7,< 100,LLVDCFKVKVGELCDLFFGGG [SEQ ID NO 3125]
8,< 100,ELLVDCFKVKVGELCDLFFGGG [SEQ ID NO 3124]
9,< 100,LVDCFKVKVGELCDLFFGGG [SEQ ID NO 3126]
10,< 100,GGELLVDCFRVRVGELCDLFFGGG [SEQ ID NO 3128]
11,< 100,GGRYVHDCFIAQVGDLCDLFLH [SEQ ID NO 3137]
12,< 100,GGELLVDCFKVKVGELCDLFFG [SEQ ID NO 3114]
13,< 100,VDCFKVKVGELCDLFFGGG [SEQ ID NO 3127]
